# From US20210196796A1 (SYNTHEKINE, published 2021)
# T1: orthogonal hCD122 receptor (hoRb), hCD122 with H133D and Y134F (human, UniProt P14784 27-550)
# T1 sequence: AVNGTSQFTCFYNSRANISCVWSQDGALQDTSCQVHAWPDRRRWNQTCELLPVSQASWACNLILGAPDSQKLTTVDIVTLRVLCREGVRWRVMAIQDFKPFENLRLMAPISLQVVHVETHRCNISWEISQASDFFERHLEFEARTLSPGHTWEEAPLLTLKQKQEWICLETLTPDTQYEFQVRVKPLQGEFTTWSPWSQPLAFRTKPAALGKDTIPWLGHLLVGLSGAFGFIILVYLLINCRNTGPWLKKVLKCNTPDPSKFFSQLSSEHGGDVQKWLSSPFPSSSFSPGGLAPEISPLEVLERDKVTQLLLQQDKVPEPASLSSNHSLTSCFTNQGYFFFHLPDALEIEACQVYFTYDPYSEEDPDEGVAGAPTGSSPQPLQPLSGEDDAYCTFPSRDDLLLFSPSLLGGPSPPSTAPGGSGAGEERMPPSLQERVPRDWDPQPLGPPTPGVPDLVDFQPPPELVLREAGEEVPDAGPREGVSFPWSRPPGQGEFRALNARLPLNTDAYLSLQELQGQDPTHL
# B1: L18M, SQVLKA (ligand)
# chain: APTSSSTKKTQLQLSQLMVLLKAILNGINNYKNPKLTRMLTFKFYMPKKATELKHLQCLEEELKPLEEVLNLAQSKNFHLRPRDLISNINVIVLELKGSETTFMCEYADETATIVEFLNRWITFCQSIISTLT
# B2: L18W, SQVLKA (ligand)
# chain: APTSSSTKKTQLQLSQLWVLLKAILNGINNYKNPKLTRMLTFKFYMPKKATELKHLQCLEEELKPLEEVLNLAQSKNFHLRPRDLISNINVIVLELKGSETTFMCEYADETATIVEFLNRWITFCQSIISTLT
# B3: SNVLKA (ligand)
# chain: APTSSSTKKTQLQLSNLLVLLKAILNGINNYKNPKLTRMLTFKFYMPKKATELKHLQCLEEELKPLEEVLNLAQSKNFHLRPRDLISNINVIVLELKGSETTFMCEYADETATIVEFLNRWITFCQSIISTLT
# B4: TQVLKA (ligand)
# chain: APTSSSTKKTQLQLTQLLVLLKAILNGINNYKNPKLTRMLTFKFYMPKKATELKHLQCLEEELKPLEEVLNLAQSKNFHLRPRDLISNINVIVLELKGSETTFMCEYADETATIVEFLNRWITFCQSIISTLT
# B5: L18G, SQVLKA (ligand)
# chain: APTSSSTKKTQLQLSQLGVLLKAILNGINNYKNPKLTRMLTFKFYMPKKATELKHLQCLEEELKPLEEVLNLAQSKNFHLRPRDLISNINVIVLELKGSETTFMCEYADETATIVEFLNRWITFCQSIISTLT
# B6: ΔH16, S_VLKA (ligand)
# chain: APTSSSTKKTQLQLSLLVLLKAILNGINNYKNPKLTRMLTFKFYMPKKATELKHLQCLEEELKPLEEVLNLAQSKNFHLRPRDLISNINVIVLELKGSETTFMCEYADETATIVEFLNRWITFCQSIISTLT
# Assays:
# [1] = biological target: T1, orthogonal hCD122 receptor (hoRb), …; test: cell-based or functional assay
# [2] = biological target: T1, orthogonal hCD122 receptor (hoRb), …; test: cell-based or functional assay; remark: listed apart in the source
# Throughout, for Relative Proliferation Fold Change 3F8 1:10: reference of the scale not given here.
# Throughout, for Relative Proliferation Fold Change 3F8 1:2: reference of the scale not given here.
# Throughout, for Relative Proliferation Fold Change 3F8 1:50: reference of the scale not given here.
# Throughout, for Relative Proliferation Fold Change NKL 1:10: reference of the scale not given here.
# Throughout, for Relative Proliferation Fold Change NKL 1:2: reference of the scale not given here.
# Throughout, for Relative Proliferation Fold Change NKL 1:50: reference of the scale not given here.
Binder,3F8 Ortho Proliferation Signal 1:2 [1] [cts/min],3F8 Ortho Proliferation Signal 1:10 [1] [cts/min],3F8 Ortho Proliferation Signal 1:50 [1] [cts/min],Relative Proliferation Fold Change 3F8 1:2 [1] [fold],Relative Proliferation Fold Change 3F8 1:10 [1] [fold],Relative Proliferation Fold Change 3F8 1:50 [1] [fold],NKL Ortho Proliferation Signal 1:2 [2],NKL Ortho Proliferation Signal 1:10 [2],NKL Ortho Proliferation Signal 1:50 [2],Relative Proliferation Fold Change NKL 1:2 [2] [fold],Relative Proliferation Fold Change NKL 1:10 [2] [fold],Relative Proliferation Fold Change NKL 1:50 [2] [fold]
B1,42000,48500,37200,55,21.9,16.6,42700,43900,22100,3.7,2.72,1.55
B2,36800,32800,9570,138,43.1,12.7,18700,17000,10700,1.56,1.1,0.71
B3,31400,32700,19000,9.2,11.8,4.79,46800,39700,18300,2.94,2.19,1.09
B4,29100,35900,17000,2.6,16,8.69,50400,57900,27800,3.46,3.31,1.75
B5,37700,25900,9750,52.9,17,3.79,15400,13400,8640,1.05,0.83,0.57
B6,2360,4420,1670,3.49,1.68,1.33,20900,14200,9760,1.32,0.84,0.62
